Assay: soluble on expression in E. coli; label from the status in PepcDB or PDB records

Sequence	soluble on expression in E. coli
MATAHYHGSCQCGSVSFEVDADLDHTVICNCSRCKRLGSTLAFAPREKFTLLSGEDKLSEYLFNKHKIHHFFCSTCGIESFAYADGPDGTPMVAVNANCLDGVDPRALKSQAFDGAA	not soluble
MSLNQNPVEEGQKFPLTIRRMGINGEGIGYFKKAVVFVPGAITGEEVVVEAVKVRDRFTEAKLNKIRKKSPNRVTAPCPVYEACGGCQLQHVAYSAQLELKRDIVIQSIEKHTKIDPTKLKIRPTIGMEDPWRYRNKSQFQTRMVGSGQVETGLFGANSHQLVPIEDCIVQQPVTIKVTNFVRDLLEKYGVPIYDEKAGSGIVRTIVVRTGVKTGETQLVFITNSKKLPKKREMLAEIEAALPEVTSIMQNVNQAKSSLIFGDETFLLAGKESIEEKLMELEFDLSARAFFQLNPFQTERLYQEVEKALVLTGSETLVDAYCGVGTIGQAFAGKVKEVRGMDIIPESIEDAKRNAEKNGIENVYYEVGKAEDVLPKWVKEGFRPDAVIVDPPRSGCDQGLIKSLLDVEAKQLVYVSCNPSTLARDLALLAKKYRIRYMQPVDMFPQTAHVETVVLLQLKDKEGHHHHHH	soluble
MGSDKIHHHHHHMKQMNVVLIGGGTGLSVLARGLREFPIDITAIVTVADNGGSTGKIRDVMDIPAPGDIRNVIAALSDSESILTQLFQYRFGENQVDGHSLGNLVIAGMTNITNDFGHAIKELSKVLNIKGQVIPSTNASVQLNAVMEDGEIVHGETNIPKTHKKIDRVFLEPSDVEPMNEAIEALEQADLIVLGPGSLYTSVISNLCVKGISEALLRTSAPKLYVSNVMTQPGETDNYDVKEHIDALTRQVGEPFIDFVICSSESYSKDVLQRYEEKNSKPVAVHKEQLKDSGIRVLTASNLVEISNEHYVRHNTKVLSKMIYELALELTSTIRFTPSDKKK	not soluble
MSLATIKDVAQRAGLSISTVSRYLNHHPYISEDKKIKIQQAMDELDYVPNLVAMQLRSNKSYTIGIIVPRITNPYFAYLIDAIDKKIKGTPYHTLIMQTYNDKEEELRLLNMFKQRQIAGVIMGALENDIEVLETYTKYGPIILSADQSMQSDKVKIIHTTQRQTTYDAIQYLINKGYRNIAYCTDNNYYDHCFNKPRNVGFRVAMKDNGLDIRNEWIFNNVHTIEDGEQIGKILLRQEQLPDAIFTGSDEVALGLMHFMTAHQIDIPNQIAIMGYDNQPISSLLKIPLSTVNQPVNDIGMQLINYLLALLEETEFEINDNVLKLNIVERQSTEGHHHHHH	soluble
IGEFSYSLNGNLSYAHNRILSRTQADNTLPWQSVLGSSVGELWGLKALGLYQSEEEIANSPQVSWNTPRVGDIKYADINGDGKIDSNDRIKISRGIRPEMMFALMADANYKGFDLSVQFQGAALCDKMLQYSWQDLNGATDMTPMTRPWYANWDNAPLYLVENSWRPDHTNAEYPRLTVSSVSHSNNAQQSDFWKRNGAYLRLKNVTLGYTLPKAWTNKMGLSNIRVYANGTNLLTFTDFKYIDPESTNVATGYYPQQRTFSFGIDVRF	not soluble
MAVPATIPLTITNNSGRAEQIHIYNLGTELSSGRQGWADASGAFHPWPAGGNPPTPAPDASIPGPAPGRSTTIQIPKFSGRIYFSYGRKMEFRLTTGGLVQPAVQNPTDPNRDILFNWSEYTLNDSGLWINSTQVDMFSAPYTVGVRRGDGTTLSTGKLRPGGYNGVFNALRGQSGGWANLIQTRSDGTVLRALSPLYGVETGALPASVMDDYINRVWNKYTGTDLIVTPFADRPDVRYTGRVSGGVLRFTDGSGAVVTTFQKPDASSVFGCHRLLDAPNDQVRGPISRTLCAGFNRTTLLANPHQPDRSAAGFYQEPVTNHYARIIHAHMADGKAYGFAFDDVGHHESLVHDGDPRGASLTLDPFD	soluble
MSLLRSLRVFLVARTGSYPAGSLLRQSPQPRHTFYAGPRLSASASSKELLMKLRRKTGYSFVNCKKALETCGGDLKQAEIWLHKEAQKEGWSKAAKLQGRKTKEGLIGLLQEGNTTVLVEVNCETDFVSRNLKFQLLVQQVALGTMMHCQTLKDQPSAYSKGFLNSSELSGLPAGPDREGSLKDQLALAIGKLGENMILKRAAWVKVPSGFYVGSYVHGAMQSPSLHKLVLGKYGALVICETSEQKTNLEDVGRRLGQHVVGMAPLSVGSLDDEPGGEAETKMLSQPYLLDPSITLGQYVQPQGVSVVDFVRFECGEGEEAAETE	soluble
MYDAYTPCEVALRLPVEVTCLAFQESNQTLLAGGRAGHLYAYTISANRRGFELTNICKSFHKKAVMELKVCQREDLLLCVSDGQLMAHKLSDPEYKVETLIHKVKPVQTFARFSPKTSGDLYVIVSSRKKLYLFKWGEKDGHKEFIEVALDYNPVFLDTPTSIRCVGEMVFFSVRNEYFSMTMQKDKTTTSPSEGSTPEGWNGFVTRLLNFNCQPGIVPMIDRRRVAFVRNEIVVTTDIWGQRPANVLSDEYKFSEVPMQIVYDSPYLVGMLSKGRVEVRSIFDGQLVQTMSLPKAMTLCSGARGQVFVAALSDIWILDTSQNLRKNVSHLIQERHFELAIQLAENSNLFAEEQKLEIKKKAALNLFNQKKFDESFALFGEIKTDISEVLSIIRMFPELLPDGFQSMTGVVSDMPANDRMRALLALGSYLSEIRTEHAKHIELYNRLYSSGAAKKTDEDEKAKLLLTLRVVDTTLLKCYIKTKPMLVDSLIRLQSNACTFEDAKKILESEGRLRSLFILYETRKKHEMALDLFIDQSSRPDADPFFDDAIQQIVEYLQSLGNSNLPLILKYAKWVLAKNLEAGVQIFTSDETEMARNLNRKAVVEFLKSECPDALIPYLEHVIFKWEEPSSYFHETLLEFYVARVNTLFKDYVHAFPDDENITRAGDEDGELGLYRKRLLKFLEVSHSYSPQTVLLQLAPHAFYEERALILGRLKQHEQALAIYVNTLKNVPAAEEYCRLYYNAHDETNSQVYLMLFRTLVHPNQQQLHSIPYHADSTPFGSYRDDVSEASTLVNSTSSYQPDVNTAIKILAKHADKIDTVGALNMLPATTPLRVVFSAINAVIQTTGRQASTRKMEKSVSQCAMSKKLERKNKAQSTKIIVNFSSECVVCEKKIAVSAFVRYPDGRLAHLYCHNDSQGGNRN	not soluble
MEKNWYVVHTYSGYENKVKANLEKRVESMGMQDKIFRVVVPEETETDVKNGKRKTTKKKVFPGYVLVEMVMTDDSWYVVRNTPGVTGFVGSSGAGSKPTPLMEEEVKMILKRMGMPLAEVDVDYEVNETVRIKEGPFANFTGKIEAIDPDKHKVKLLVDMFGRETRVELEFSQIEKI	not soluble
MRHSFFCIDSHTCGNPVRLVAGGGPLLPHLPISERRDLFVRNHDWVRQALMFEPRGHDIMSGAVIYPAYRDDCDFAVIFIEVSGCLPMCGAGTIGLVTAAIEEGLVTPRIPGRLSIETPAGKVDIQYDKPGEFVESVRIFNVASYLHAADVEVNVPGLGKLVVDIAYGGNYYAVIEPQVGWPGLDGMTAGDVVDLSQKLRDALGTICDPVHPDDERIRGVHHAIWCDRPVSAEADGRGAVFYGDKAIDRSPGGTGTSARMAQLHGKGRLKAGETFRQESLIGTIFEGKVEEETTVGSFSGIRPSIGGWARIIGHNTIFVDDRDPLAHGFQVRLEHHHHHH	not soluble
MPSGAEFTRDERQLNQHENPNDAMSDDNSHSSDTVNSKKGFFSLLLSQLFHGEPKNRDELLALIRDSGQNDLIDEDTRDMLEGVMDIADQRVRDIMIPRSQMITLKRNQTLDECLDVIIESAHSRFPVISEDKDHIEGILMAKDLLPFMRSDAEAFSMEKVLRPAVVVPESKRVDRMLKEFRSQRYHMAIVIDEFGGVSGLVTIEDILELIVGEIEDEYDEEEDIDFRQLSRHTWTVRALASIEDFNDAFDTHFSDEEVDTIGGLVMQAFGHLPARGESIDIDGYQFKVAMADSRRIIQVHVKLPDDAPQPKLEE	not soluble
MSLQIKFIDLFSGMSGIRKGFEQACRKQSVACECVFTSEIKPAALEVLKQNYPDEVPYGDITKIETGDIPDFDILLAGFPCQAFSFAGKRLGFEDTRGTLFFDVARILKAKKPKGFILENVEGLVTHDRKDPTQKIGRTLTVILETLETLGYYVSWKVLNAKDFGIPQNRKRIYLTGSLKSKPDLSFETTLSPKLKNILESGLPTESSPFIKKLLKKFPPSELYGKSVKDKRGGKNNIHSWDIELKGTVTEEEKQLLNMLLKERRKKKWASEIGIDWMDGMPLTKAQISTFYKHPNLQNILDSLTDKGYLVLEHPKQKIGGRRIKDESLPKGYNIVSGKKSFEINKILDPNDVAPTLVAMDMEHLFVVDNGGLRTLTGKEGLRLFGYPDDYSFDIPKKDKYDLLGNTVAVPVIKAVSERLLHTLEGHHHHHH	soluble
